This passage reports 450nm and 中和实验 (微量中和-ELISA, MDCK细胞) IC50 results from patent publication CN111434684A.

For assay [1], the target named is H7N9病毒的HA蛋白(购自ACROBiosystems) (H7N9 influenza virus). The assay is described as follows: ELISA, HA coated, negative control.
Assay [2] deals with H7N9病毒 A/Anhui/1/2013 的血凝素HA (on live virus) (influenza A virus A/Anhui/1/2013 (H7N9)). The assay is described as follows: cell-based or functional assay.
The target of assay [3] is H7N9病毒的HA蛋白(购自ACROBiosystems) (H7N9 influenza virus). The experiment in a line: ELISA, HA coated, supernatant of 293F cells transfected with 5Q2 H and L genes. (An ELISA detects its analyte on a solid surface through an enzyme-linked reagent.)

“And” between values parts separate entries of the source, which are not always exact repeats. Equal values may be shown once.

On to 阴性对照 (ELISA, wells G, H), for which the 450nm in assay [1] is 0.0675 OD450 and 0.0554 OD450.

B1: 抗H7N9全人源单克隆抗体5Q2 (antibody, V domains shown)
VH: QVQLVESGAEVKKPGASVKVSCKASGYIFTNYDINWVRQATGQGLEWMGWMSPDNGDTGFAQKFQGRVTMTRNTSITTAYMELSSLTSEDTAVYYCATGSADCNGGNCYSWFDPWGQGTLVTVSS
VL: SSELTQDPAVSVALGQTVRITCQGDRVRNYYASWYQQKPGQAPVLVIYGKSNRPSGIPDRFSGSSSGNTASLTITGAQAEDEADYYCSNRDTNGYHVLFGGGTKLTVLV
The molecule B1 yielded a 中和实验 (微量中和-ELISA, MDCK细胞) IC50 in assay [2] of 5.52 µg/mL. Moreover, the 450nm in assay [3] is 1.23 OD450 and 0.936 OD450 and 0.723 OD450.
